The values below come from publication PMC12485084.

This experiment deals with 3xFLAG-TurboID-CaM C-lobe (human). Kind of experiment: proximity labelling.

Sequence of 3xFLAG-WT human TRPA1 (Transient Receptor Potential Ankyrin subtype 1) (O75762 whole entry): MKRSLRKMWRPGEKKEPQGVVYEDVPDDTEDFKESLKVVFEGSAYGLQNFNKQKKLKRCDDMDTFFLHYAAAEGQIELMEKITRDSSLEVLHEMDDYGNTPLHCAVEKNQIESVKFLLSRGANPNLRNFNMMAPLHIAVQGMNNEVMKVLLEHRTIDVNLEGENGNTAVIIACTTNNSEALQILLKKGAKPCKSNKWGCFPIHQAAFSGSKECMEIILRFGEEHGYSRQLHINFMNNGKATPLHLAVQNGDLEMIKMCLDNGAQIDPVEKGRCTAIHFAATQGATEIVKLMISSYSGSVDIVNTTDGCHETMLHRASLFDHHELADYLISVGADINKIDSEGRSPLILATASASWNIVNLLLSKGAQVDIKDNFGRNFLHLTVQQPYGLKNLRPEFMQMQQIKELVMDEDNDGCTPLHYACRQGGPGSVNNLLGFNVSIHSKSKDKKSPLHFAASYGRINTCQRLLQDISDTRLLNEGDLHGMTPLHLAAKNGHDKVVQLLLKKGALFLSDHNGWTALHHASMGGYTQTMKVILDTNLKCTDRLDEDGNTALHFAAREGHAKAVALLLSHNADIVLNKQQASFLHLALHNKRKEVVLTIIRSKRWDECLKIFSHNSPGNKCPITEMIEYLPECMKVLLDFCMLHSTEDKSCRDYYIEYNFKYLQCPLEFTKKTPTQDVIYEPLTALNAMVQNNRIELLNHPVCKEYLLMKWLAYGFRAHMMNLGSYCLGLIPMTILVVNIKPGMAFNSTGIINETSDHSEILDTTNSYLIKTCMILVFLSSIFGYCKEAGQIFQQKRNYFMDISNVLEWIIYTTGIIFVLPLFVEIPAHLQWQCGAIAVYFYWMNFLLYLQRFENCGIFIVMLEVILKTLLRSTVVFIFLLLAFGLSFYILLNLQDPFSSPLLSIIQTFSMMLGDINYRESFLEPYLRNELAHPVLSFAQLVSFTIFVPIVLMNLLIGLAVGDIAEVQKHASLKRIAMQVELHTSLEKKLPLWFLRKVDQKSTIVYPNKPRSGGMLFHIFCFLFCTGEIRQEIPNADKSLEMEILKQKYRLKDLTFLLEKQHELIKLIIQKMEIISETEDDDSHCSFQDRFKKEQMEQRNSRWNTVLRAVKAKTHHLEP

As to “3xFLAG-WT human TRPA1 (Transient Receptor Potential Ankyrin subtype 1) (from UniProt O75762 1-1119) (natural protein)”, the percent increase in biotinylation with TurboID-CaM C-lobe versus free TurboID turned out to be 40%.
